We go through five molecules from paper PMC7672443, “Structural basis of the XPB helicase–Bax1 nuclease complex interacting with the repair bubble DNA” (Nucleic Acids Research, 2020).

In data set [1] the target is T1, StXPB-Bax1^ΔC (Sulfurisphaera tokodaii, UniProt Q970I2).
T1 construct: gene xpb2
Conditions: phosphate in the ATP-binding site of XPB, DNA-free heterodimer; NH4-citrate pH 7.5, PEG3350.

The target in data set [2] is T2, StXPB (Sulfurisphaera tokodaii, UniProt Q970I2 2-439).
T2 sequence: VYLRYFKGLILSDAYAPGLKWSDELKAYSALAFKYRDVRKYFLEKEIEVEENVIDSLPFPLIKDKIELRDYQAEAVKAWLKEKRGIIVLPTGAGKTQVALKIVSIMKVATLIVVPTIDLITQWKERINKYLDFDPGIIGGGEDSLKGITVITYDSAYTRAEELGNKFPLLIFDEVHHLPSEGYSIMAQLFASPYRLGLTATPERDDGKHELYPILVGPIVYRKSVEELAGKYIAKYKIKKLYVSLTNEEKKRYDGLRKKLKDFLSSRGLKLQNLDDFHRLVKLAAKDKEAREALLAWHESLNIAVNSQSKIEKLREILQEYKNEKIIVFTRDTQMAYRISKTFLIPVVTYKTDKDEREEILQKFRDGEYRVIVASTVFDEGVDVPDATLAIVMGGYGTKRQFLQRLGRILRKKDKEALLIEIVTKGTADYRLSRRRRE
Kind of data set: EMSA; stable complex at high protein:DNA ratio; EMSA: 25 mM Tris-Cl pH 7.5, 100 mM NaCl, 5% glycerol, 1 mM DTT, room temperature 40 min; 0.8 uM forked DNA or 0.3 uM bubble DNA; 4% TBE native gel, ethidium bromide. Conditions: protein: recombinant; tags: N-terminal His8 (PreScission; removed); 3 nt mismatch bubble.

Data set [3] addresses T2, StXPB. In words: EMSA; lower affinity than with Bax1; EMSA: 25 mM Tris-Cl pH 7.5, 100 mM NaCl, 5% glycerol, 1 mM DTT, room temperature 40 min; 0.8 uM forked DNA or 0.3 uM bubble DNA; 4% TBE native gel, ethidium bromide. Conditions: protein: recombinant; tags: N-terminal His8 (PreScission; removed); fork: 22 bp duplex, 10 nt arms. (A gel shift assay detects complexes by their altered migration in electrophoresis.)

Data set [4] addresses T2, StXPB. Kind of data set: EMSA; stable complex; EMSA: 25 mM Tris-Cl pH 7.5, 100 mM NaCl, 5% glycerol, 1 mM DTT, room temperature 40 min; 0.8 uM forked DNA or 0.3 uM bubble DNA; 4% TBE native gel, ethidium bromide. Particulars: protein: recombinant, tags: N-terminal His8 (PreScission; removed).

Residue numbers refer to the chain shown, from its start.

T1 sequence (Q970I1 2-373 partner, one chain of several): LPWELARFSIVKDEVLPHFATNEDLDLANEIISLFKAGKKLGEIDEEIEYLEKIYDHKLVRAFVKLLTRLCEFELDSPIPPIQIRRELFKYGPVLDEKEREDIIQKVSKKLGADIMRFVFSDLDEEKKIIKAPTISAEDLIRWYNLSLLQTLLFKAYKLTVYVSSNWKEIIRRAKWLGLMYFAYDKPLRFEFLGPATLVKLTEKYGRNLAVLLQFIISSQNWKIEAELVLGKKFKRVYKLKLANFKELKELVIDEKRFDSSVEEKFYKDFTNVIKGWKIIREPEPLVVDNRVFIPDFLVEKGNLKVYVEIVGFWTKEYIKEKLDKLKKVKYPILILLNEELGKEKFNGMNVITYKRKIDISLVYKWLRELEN

As for `O=P(O)(O)O` [phosphate ion], the “X-ray crystallography, 2.96 Å” value in data set [1] was “the ATP binding site of XPB contains a bound phosphate ion”.

B1: bubble-3 DNA (dsDNA)
DNA 1: TAGTCACAGCTGATTTTGCTCTGCTCCATAGT
DNA 2: ACTATGGAGCAGAGCTTTATCAGCTGTGACTA
As for B1, the binding result in data set [2] was “binds”.

B2: forked DNA (dsDNA)
DNA 1: B1 DNA 1 with T16G, T17C
DNA 2: TGATACTTCGAGAGCGCAATCAGCTGTGACTA
For B2, in data set [3], the binding result was “binds”.

B3: bubble-5 DNA (dsDNA)
DNA 1: B1 DNA 1 with G18T
DNA 2: B1 DNA 2 with C15T, A19T
Take B3: in data set [4] (32 nt strands, blunt, internal 5 nt T:T mismatch bubble), the binding result is given as “binds”.

B4: bubble-4 DNA (dsDNA)
DNA 1: B1 DNA 1 with G18T
DNA 2: B1 DNA 2 with C15T
With B4, in data set [4] (4 nt mismatch bubble), the binding result is listed as “binds”.
